The values that follow come from patent US20060160994A1 (STICHTING SANQUIN BLOEDVOORZIENING, published 2006).

Assay [1] concerns the target T1, low density lipoprotein receptor-related protein (LRP), purified and immobilized (UniProt Q07954 20-4544, limits assumed).
T1 construct: Purified LRP, amine-coupled to a CM5 sensor chip; also called low density lipoprotein receptor protein; alpha2-macroglobulin receptor
In words: SPR, LRP immobilized (6.7 fmol/mm^2), two classes of binding sites, class A. As to the method:
(§1) This method is generally known in the art and was employed for the kinetic analysis of the interaction between LRP and receptor-associated protein (RAP) (Hom I, in LRP-ligand interactions: kinetics and structural requirements; Ph.D. thesis, 1997, pp. 65-106, Amsterdam University). […] Subsequently, the channels were incubated with the same buffer at a similar flow so as to enable dissociation.
(§2) The data were analyzed by means of Biacore Evaluation Software (Pharmacia Biosensor AB, Uppsala, Sweden). […] The association and dissociation speed constants (kₒₙ and koff, respectively) were calculated for the two binding sites. These speed constants were subsequently used to obtain the affinity constants (Kd) for these interactions.
Background: In SPR one partner is held on a chip, and binding of the other changes the refractive index at the surface.

Assay [2] has as its target T1, low density lipoprotein …. In words: SPR, LRP immobilized (6.7 fmol/mm^2), two classes of binding sites, class B. As to the method: as §1, §2
Assay [3] concerns the target T1, low density lipoprotein …. In words: SPR, LRP immobilized (6.7 fmol/mm^2), two classes of binding sites, class A; Kd = koff/kon. The procedure:
as §1, §2

Assay [4] concerns the target T1, low density lipoprotein …. In words: SPR, LRP immobilized (6.7 fmol/mm^2), two classes of binding sites, class B; Kd = koff/kon. As to the method: as §1, §2

T1 sequence (Q07954 20-4544 limits assumed, form in doubt): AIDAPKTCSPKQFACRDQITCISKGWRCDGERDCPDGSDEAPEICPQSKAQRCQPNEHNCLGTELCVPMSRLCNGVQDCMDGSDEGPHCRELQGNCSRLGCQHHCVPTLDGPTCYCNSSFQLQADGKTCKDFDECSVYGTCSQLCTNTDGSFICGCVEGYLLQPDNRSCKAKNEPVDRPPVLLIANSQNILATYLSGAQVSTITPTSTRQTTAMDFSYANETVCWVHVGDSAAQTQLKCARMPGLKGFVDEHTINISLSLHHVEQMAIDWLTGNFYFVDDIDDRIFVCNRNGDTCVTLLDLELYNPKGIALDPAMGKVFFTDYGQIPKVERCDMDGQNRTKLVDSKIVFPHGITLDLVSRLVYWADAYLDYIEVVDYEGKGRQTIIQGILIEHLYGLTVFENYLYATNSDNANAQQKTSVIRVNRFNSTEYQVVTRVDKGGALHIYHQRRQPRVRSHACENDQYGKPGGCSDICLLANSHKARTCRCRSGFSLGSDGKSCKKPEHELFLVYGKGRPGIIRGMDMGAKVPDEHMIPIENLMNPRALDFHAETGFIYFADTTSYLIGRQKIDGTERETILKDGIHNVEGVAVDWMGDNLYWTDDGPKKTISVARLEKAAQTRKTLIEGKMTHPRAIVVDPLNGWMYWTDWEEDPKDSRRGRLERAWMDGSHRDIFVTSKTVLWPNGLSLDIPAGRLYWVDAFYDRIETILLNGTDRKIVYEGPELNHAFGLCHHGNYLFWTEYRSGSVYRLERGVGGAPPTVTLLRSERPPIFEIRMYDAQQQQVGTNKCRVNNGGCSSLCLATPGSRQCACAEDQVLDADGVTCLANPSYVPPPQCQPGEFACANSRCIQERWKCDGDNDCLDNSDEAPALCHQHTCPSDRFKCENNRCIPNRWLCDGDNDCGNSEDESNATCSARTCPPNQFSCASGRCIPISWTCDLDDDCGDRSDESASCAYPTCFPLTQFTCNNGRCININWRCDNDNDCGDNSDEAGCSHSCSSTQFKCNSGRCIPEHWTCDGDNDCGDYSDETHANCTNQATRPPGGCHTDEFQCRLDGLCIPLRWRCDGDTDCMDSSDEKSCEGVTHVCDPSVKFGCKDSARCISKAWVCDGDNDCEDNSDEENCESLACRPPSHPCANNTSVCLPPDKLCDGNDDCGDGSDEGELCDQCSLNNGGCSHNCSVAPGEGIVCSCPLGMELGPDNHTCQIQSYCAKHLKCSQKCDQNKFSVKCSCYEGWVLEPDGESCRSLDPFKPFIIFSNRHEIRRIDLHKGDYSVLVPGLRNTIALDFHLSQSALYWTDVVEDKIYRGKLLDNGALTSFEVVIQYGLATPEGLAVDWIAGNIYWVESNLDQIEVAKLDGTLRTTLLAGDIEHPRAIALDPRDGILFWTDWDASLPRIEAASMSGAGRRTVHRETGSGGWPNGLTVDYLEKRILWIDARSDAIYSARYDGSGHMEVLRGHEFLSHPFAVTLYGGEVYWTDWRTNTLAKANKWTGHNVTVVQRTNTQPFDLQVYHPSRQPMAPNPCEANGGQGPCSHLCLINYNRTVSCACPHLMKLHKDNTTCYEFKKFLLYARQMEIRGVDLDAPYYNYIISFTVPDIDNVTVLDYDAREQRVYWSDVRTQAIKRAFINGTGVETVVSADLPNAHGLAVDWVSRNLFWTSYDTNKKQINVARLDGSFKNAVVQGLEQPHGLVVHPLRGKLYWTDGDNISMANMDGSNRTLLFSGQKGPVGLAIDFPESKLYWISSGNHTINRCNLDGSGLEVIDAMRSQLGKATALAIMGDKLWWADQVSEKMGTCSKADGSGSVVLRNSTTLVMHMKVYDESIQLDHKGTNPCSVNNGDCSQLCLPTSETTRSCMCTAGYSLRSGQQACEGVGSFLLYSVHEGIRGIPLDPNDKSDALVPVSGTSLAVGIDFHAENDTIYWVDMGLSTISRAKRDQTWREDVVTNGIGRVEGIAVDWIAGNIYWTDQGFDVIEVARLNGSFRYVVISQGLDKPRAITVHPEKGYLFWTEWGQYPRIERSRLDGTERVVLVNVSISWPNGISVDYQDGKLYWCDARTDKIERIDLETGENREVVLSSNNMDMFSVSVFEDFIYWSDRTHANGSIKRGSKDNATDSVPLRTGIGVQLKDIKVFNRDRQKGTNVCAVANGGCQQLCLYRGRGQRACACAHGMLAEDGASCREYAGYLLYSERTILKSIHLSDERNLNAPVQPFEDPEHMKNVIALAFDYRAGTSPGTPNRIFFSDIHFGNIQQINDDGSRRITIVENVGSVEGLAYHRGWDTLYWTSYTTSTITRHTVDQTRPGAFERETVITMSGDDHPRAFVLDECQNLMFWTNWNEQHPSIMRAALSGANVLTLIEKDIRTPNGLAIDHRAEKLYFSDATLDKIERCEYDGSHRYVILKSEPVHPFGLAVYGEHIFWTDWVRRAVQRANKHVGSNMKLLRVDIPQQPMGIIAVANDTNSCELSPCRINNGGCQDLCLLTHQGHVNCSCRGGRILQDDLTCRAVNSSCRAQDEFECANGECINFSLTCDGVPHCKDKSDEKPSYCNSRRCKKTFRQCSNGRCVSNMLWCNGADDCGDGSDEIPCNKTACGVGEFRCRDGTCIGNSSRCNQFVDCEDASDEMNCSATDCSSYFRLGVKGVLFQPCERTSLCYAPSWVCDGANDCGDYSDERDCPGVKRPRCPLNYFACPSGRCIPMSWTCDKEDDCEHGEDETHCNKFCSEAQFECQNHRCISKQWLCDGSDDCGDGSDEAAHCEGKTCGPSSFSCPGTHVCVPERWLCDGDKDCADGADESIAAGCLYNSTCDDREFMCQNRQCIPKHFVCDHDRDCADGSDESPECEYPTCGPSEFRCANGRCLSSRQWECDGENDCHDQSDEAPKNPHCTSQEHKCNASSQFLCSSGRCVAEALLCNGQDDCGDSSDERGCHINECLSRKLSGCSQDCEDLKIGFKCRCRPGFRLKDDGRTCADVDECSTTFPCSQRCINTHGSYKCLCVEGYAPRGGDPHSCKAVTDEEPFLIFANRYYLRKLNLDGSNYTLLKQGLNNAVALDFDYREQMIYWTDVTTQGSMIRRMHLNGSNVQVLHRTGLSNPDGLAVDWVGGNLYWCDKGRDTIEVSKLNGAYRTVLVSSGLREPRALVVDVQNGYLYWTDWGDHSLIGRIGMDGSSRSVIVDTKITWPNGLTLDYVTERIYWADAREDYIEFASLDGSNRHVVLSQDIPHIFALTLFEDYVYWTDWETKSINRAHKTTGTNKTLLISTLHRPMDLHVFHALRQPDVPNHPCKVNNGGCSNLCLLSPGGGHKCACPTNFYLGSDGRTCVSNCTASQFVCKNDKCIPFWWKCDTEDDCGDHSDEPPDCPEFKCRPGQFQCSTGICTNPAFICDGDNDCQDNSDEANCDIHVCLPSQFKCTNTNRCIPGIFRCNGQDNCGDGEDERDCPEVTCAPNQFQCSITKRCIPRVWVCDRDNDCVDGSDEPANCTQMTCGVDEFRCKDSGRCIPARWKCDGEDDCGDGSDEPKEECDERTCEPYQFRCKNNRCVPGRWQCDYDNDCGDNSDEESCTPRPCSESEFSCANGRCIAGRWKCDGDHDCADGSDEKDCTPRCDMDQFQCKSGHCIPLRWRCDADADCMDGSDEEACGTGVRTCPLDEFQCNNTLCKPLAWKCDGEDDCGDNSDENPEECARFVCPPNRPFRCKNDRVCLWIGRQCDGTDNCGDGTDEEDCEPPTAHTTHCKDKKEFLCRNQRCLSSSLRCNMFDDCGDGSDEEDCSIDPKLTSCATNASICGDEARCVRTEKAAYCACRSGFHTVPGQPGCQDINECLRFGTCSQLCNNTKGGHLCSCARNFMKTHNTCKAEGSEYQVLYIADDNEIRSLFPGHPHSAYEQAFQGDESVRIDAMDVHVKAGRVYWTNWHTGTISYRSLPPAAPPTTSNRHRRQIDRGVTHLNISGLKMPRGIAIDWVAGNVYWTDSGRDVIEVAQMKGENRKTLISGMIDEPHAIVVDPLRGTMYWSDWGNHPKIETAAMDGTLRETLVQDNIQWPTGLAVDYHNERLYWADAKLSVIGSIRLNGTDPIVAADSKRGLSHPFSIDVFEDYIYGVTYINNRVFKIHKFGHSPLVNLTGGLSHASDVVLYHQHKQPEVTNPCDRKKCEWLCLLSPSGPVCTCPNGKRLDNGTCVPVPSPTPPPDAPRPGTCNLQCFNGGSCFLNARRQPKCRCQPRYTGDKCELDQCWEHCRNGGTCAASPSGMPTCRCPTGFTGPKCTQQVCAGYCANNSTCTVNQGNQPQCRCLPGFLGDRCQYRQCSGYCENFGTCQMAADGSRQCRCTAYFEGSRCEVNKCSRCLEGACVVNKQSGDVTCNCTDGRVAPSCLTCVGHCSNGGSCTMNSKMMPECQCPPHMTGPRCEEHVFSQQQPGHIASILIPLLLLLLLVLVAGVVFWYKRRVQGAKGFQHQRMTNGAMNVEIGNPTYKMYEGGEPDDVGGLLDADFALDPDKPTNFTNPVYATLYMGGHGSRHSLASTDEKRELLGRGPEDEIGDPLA

B1: light chain of Factor VIII (other)
chain: EITRTTLQSDQEEIDYDDTISVEMKKEDFDIYDEDENQSPRSFQKKTRHYFIAAVERLWDYGMSSSPHVLRNRAQSGSVPQFKKVVFQEFTDGSFTQPLYRGELNEHLGLLGPYIRAEVEDNIMVTFRNQASRPYSFYSSLISYEEDQRQGAEPRKNFVKPNETKTYFWKVQHHMAPTKDEFDCKAWAYFSDVDLEKDVHSGLIGPLLVCHTNTLNPAHGRQVTVQEFALFFTIFDETKSWYFTENMERNCRAPCNIQMEDPTFKENYRFHAINGYIMDTLPGLVMAQDQRIRWYLLSMGSNENIHSIHFSGHVFTVRKKEEYKMALYNLYPGVFETVEMLPSKAGIWRVECLIGEHLHAGMSTLFLVYSNKCQTPLGMASGHIRDFQITASGQYGQWAPKLARLHYSGSINAWSTKEPFSWIKVDLLAPMIIHGIKTQGARQKFSSLYISQFIIMYSLDGKKWQTYRGNSTGTLMVFFGNVDSSGIKHNIFNPPIIARYIRLHPTHYSIRSTLRMELMGCDLNSCSMPLGMESKAISDAQITASSYFTNMFATWSPSKARLHLQGRSNAWRPQVNNPKEWLQVDFQKTMKVTGVTTQGVKSLLTSMYVKEFLISSSQDGHQWTLFFQNGKVKVFQGNQDSFTPVVNSLDPPLLTRYLRIHPQSWVHQIALRMEVLGCEAQDLY
notes: also called Factor VIII light chain
Usually koff stands for the first-order rate constant of dissociation. Low readings indicate slow dissociation, high ones fast dissociation. One may read the kon as a measure of how fast the partners come together. What is called Kd is a measure of binding affinity in units of concentration. Read a high Kd as a looser complex. As for B1, the results for the koff in assay [1] and in assay [2] were 0.055 s⁻¹ and 0.0027 s⁻¹, respectively. The kon amounted to 300000 M⁻¹ s⁻¹ in assay [1] and 72000 M⁻¹ s⁻¹ in assay [2]. For the same molecule, the figures for the Kd in assay [3] and in assay [4] were 182 nM and 37 nM, respectively.
